Results on two molecules are retold here after patent US20080038235A1.

What all share (test): cell-based or functional assay
Experiment [1] has as its target T1, NF-ATp expressed from an NF-ATp expression plasmid (pREP4-NF-ATp).
T1 sequence (Q60591 1-927, species assumed, looked up): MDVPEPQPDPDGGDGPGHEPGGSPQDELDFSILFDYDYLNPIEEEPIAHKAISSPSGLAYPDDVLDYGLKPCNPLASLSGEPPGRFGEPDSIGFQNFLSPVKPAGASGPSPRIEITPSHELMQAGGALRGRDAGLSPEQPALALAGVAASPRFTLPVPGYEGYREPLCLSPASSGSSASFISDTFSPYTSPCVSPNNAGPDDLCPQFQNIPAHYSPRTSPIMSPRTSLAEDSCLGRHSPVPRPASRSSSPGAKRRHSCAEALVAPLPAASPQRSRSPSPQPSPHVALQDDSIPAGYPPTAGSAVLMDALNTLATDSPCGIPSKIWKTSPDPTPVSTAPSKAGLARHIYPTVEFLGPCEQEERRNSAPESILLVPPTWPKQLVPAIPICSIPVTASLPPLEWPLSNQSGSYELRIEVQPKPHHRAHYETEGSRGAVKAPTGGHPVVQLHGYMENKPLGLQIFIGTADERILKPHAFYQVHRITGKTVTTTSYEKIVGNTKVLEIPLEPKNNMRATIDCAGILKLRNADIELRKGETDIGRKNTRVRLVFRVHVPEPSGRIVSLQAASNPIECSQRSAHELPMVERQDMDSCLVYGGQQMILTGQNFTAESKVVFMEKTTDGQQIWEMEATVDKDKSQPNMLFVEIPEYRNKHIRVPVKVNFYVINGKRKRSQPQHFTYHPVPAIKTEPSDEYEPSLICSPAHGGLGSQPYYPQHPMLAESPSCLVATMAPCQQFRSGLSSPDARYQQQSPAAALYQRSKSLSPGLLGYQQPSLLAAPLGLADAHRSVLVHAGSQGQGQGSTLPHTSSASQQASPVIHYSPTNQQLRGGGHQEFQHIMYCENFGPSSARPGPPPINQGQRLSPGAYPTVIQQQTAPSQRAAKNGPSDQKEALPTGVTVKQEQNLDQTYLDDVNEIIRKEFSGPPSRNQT

Experiment [2] concerns the target T2, NF-AT4 expressed from an expression construct.
T2 sequence (Q12968 2-1075, species assumed, looked up): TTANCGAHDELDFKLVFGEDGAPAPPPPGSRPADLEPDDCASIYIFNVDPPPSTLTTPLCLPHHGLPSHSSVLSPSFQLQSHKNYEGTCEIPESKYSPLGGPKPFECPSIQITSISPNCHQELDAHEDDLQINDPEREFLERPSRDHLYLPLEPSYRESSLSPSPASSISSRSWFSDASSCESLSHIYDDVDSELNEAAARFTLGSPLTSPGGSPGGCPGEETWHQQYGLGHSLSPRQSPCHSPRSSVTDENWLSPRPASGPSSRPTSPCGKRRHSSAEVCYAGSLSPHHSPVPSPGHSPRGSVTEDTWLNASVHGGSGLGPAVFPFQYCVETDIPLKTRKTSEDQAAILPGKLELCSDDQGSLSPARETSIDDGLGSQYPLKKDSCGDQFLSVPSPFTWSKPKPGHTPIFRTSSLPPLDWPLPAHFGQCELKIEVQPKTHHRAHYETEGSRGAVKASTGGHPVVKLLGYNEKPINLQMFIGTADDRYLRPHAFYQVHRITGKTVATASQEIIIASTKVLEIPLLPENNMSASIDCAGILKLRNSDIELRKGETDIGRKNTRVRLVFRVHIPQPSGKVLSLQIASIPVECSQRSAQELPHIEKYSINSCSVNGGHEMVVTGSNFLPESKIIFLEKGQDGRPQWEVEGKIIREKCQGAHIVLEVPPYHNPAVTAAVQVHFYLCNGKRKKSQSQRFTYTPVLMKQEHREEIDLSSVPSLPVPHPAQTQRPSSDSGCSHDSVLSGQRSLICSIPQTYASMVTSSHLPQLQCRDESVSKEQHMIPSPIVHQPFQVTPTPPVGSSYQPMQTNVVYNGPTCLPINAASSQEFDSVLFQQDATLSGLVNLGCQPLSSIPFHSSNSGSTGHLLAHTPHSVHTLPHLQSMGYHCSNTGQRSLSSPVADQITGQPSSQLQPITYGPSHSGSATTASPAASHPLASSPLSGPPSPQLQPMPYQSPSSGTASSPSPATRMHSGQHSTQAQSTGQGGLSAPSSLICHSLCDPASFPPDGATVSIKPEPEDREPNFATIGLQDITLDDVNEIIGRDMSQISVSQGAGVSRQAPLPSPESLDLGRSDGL

Experiment [3] has as its target T3, NF-ATc expressed from an expression construct.
T3 sequence (O95644 1-943, species assumed, looked up): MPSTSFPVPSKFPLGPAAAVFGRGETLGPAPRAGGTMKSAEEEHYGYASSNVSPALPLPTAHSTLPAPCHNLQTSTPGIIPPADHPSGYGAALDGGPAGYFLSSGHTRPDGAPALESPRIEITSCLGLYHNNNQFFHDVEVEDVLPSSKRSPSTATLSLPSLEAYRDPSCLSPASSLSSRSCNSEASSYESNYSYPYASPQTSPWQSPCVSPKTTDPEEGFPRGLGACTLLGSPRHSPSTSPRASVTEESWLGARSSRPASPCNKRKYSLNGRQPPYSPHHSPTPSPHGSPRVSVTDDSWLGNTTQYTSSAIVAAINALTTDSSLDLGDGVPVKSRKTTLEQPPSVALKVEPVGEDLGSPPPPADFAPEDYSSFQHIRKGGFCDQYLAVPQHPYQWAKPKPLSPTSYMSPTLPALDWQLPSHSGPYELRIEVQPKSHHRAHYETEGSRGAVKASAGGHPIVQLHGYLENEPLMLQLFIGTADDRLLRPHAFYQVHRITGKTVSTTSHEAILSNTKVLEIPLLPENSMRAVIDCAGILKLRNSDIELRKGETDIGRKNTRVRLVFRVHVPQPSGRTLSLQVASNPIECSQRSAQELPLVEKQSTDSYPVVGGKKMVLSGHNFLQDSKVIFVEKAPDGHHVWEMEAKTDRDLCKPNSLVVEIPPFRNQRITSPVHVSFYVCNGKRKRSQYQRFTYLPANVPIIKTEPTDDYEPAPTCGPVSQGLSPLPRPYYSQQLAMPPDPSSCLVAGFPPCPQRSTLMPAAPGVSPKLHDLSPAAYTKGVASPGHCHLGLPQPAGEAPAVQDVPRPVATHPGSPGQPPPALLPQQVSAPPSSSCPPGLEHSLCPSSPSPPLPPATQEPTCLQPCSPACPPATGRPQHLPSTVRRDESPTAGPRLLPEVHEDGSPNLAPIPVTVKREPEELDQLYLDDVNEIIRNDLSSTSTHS

Experiment [4] concerns the target T1, NF-ATp expressed from an NF-ATp expression plasmid (pREP4-NF-ATp). The source holds these as a separate data set.
Experiment [5] addresses T4, NF-AT3 expressed from an expression construct.
T4 sequence (Q14934 1-902, species assumed, looked up): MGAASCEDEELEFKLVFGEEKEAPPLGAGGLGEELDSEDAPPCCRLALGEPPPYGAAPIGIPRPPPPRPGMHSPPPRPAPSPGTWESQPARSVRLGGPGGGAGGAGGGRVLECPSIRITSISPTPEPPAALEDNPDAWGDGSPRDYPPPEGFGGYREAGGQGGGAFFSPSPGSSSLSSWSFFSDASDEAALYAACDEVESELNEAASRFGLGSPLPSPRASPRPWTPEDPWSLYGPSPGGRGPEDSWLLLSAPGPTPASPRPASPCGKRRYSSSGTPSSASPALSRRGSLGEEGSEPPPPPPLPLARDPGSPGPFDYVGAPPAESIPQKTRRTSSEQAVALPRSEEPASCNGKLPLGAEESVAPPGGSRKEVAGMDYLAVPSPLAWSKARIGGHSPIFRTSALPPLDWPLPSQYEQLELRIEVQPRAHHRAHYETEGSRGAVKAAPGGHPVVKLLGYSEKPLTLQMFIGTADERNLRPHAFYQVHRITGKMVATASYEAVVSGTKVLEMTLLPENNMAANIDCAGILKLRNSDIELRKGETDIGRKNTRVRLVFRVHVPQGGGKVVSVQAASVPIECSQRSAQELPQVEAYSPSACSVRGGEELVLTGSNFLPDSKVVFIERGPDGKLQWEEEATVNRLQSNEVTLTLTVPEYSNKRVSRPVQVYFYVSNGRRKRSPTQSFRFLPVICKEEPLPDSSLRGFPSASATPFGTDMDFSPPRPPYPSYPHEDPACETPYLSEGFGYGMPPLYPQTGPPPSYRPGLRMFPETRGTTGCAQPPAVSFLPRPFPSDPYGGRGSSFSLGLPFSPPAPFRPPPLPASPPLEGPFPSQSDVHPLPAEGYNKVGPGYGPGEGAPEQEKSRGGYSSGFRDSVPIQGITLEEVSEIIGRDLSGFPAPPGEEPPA

In experiment [1], “c-Maf expressed from the c-Maf expression vector pMEX-Maf (full-length 4.3 kb c-maf cDNA clone) (from UniProt P54843 1-370)” had a CAT Activity (fold induction), IL-4 CAT reporter in M12 cells, no PMA/iono., Exp. I (fold induction) of 136; a CAT Activity (fold induction), IL-4 CAT reporter in M12 cells, no PMA/iono., Exp. II (fold induction) of 54; a CAT Activity (fold induction), IL-4 CAT reporter in M12 cells, no PMA/iono., Exp. III (fold induction) of 26.3; a CAT Activity (fold induction), IL-4 CAT reporter in M12 cells, with PMA/iono., Exp. I (fold induction) of 138. In experiment [1], the CAT Activity (fold induction), IL-4 CAT reporter in M12 cells, with PMA/iono., Exp. II (fold induction) was determined as 100 and the CAT Activity (fold induction), IL-4 CAT reporter in M12 cells, with PMA/iono., Exp. III (fold induction) amounted to 54.7.

B1: NIP45 expressed from a NIP45 expression plasmid (protein)
chain: MAEPLRGRGPRSRGGRGARRARGARGRCPRARQSPARLIPDTVLVDLVSDSDEEVLEVADPVEVPVARLPAPAKPEQDSDSDSEGAAEGPAGAPRTLVRRRRRRLLDPGEAPVVPVYSGKVQSSLNLIPDNSSLLKLCPSEPEDEADLTNSGSSPSEDDALPSGSPWRKKLRKKCEKEEKKMEEFPDQDISPLPQPSSRNKSRKHTEALQKLREVNKRLQDLRSCLSPKQHQSPALQSTDDEVVLVEGPVLPQSSRLFTLKIRCRADLVRLPVRMSEPLQNVVDHMANHLGVSPNRILLLFGESELSPTATPSTLKLGVADIIDCVVLASSSEATETSQELRLRVQGKEKHQMLEISLSPDSPLKVLMSHYEEAMGLSGHKLSFFFDGTKLSGKELPADLGLESGDLIEVWG
As to B1, the figures for the transactivation of the 3X NF-AT-CAT reporter in HepG2 cells in experiment [2], in experiment [3] and in experiment [5] were 2 fold, 4 fold and 3 fold, respectively. The CAT activity, 3X NF-AT-CAT reporter in HepG2 cells, relative to NF-ATp alone in experiment [4] lay within 4 to 5 fold. The molecule further came in with a CAT activity, 3X NF-AT-CAT reporter in HepG2 cells, relative to vector alone in experiment [4] of 25 to 30 fold.
